Measured values from article PMC6212594, “Structural insights into the π-π-π stacking mechanism and DNA-binding activity of the YEATS domain” (Nature Communications, 2018).
Like-named read-outs stand apart in the source and are kept apart here. *1 amine or outer side, *2 acyl side, *3 side chain or, on linkers, in order; H or OH if unused. Where no end group is shown, it is not given here. The star is where a group is joined. Suc = O=C(CCC(=O)[*:2])[*:1]; Crotonyl(E) = C/C=C/C(=O)*; Propionyl = CCC(=O)*; Butyryl = CCCC(=O)*

Columns and labels:
Taf14-YEATS G82A [1] = biological target: T1, Taf14-YEATS G82A (Saccharomyces cerevisiae, UniProt P35189, G82A); assay: biochemical; type: binding, yeast
Procedure: Kd value was calculated by a nonlinear least-squares analysis in Kaleidagraph using the1 Δδ=ΔδmaxL+P+Kd-L+P+Kd^2-4PL/2P where [L] is concentration of free acetyllysine, [P] is concentration of the protein, Δδ is the observed chemical shift change, and Δδmax is the normalized chemical shift change at saturation. Normalized chemical shift changes were calculated using the equation2 Δδ=ΔδH^2+ΔδN/5^2 where Δδ is the change in chemical shift in parts per million (ppm).

AF9-YEATS Y78W [2] = biological target: T2, AF9-YEATS Y78W (Homo sapiens, UniProt P42568, Y78W); assay: Tryptophan fluorescence binding, AF9-YEATS Y78W; conditions: 20 mM Tris pH 7.5, 500 mM NaCl, 2 mM BME, 25 °C, 1–2 µM protein, peptides aa 5–13, average of three separate experiments ± SD, read-out: Binding affinity Kd
T2 sequence (P42568 1-138 Y78W): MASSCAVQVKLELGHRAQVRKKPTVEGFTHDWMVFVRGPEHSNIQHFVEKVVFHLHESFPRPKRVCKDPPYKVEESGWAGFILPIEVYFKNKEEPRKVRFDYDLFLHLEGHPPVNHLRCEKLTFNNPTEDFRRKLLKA

Taf14-YEATS G82A [3] = biological target: T1, Taf14-YEATS G82A; assay: biochemical
Taf14 YEATS domain [4] = biological target: T3, Taf14 YEATS domain (yeast, UniProt P35189 1-137)
T3 chain: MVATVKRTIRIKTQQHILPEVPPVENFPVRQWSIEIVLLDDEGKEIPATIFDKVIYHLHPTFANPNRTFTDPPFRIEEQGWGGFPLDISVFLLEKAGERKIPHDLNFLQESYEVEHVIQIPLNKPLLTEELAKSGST

Taf14-YEATS W81Y = Taf14-YEATS W81Y (yeast, UniProt P35189 1-137, W81Y)
[5] = biological target: T4, AF9-YEATS domain (aa 1-138) (human, UniProt P42568 1-138)
T4 chain: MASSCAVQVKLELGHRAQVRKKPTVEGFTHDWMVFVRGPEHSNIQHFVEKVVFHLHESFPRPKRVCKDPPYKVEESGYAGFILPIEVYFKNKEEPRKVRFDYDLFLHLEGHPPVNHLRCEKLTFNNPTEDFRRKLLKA

[6] = biological target: T5, AF9-YEATS domain (aa 1-138) (human, UniProt P42568 1-138); assay: other fluorescence titration; tryptophan fluorescence; 1-2 µM wild-type or mutated AF9 YEATS domain in 20 mM Tris pH 7.5, 500 mM NaCl, 2 mM BME, 25 °C, increasing concentrations of H3 peptide (aa 5-13); conditions: both partners purified
T5 construct: AF9, human, YEATS domain, aa 1-138, in pET28b; His tag cleaved with thrombin; 15N-labelled for NMR; also called WT AF9-YEATS; source: E. coli BL21 (DE3) RIL, purified (nickel-NTA, ion exchange / size exclusion)
T5 sequence (looked up): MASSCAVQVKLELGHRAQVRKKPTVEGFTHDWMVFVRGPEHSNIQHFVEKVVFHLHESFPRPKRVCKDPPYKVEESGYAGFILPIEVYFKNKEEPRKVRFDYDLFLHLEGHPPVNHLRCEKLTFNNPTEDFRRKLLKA

Taf14-YEATS (1-137) = biological target: T6, Taf14-YEATS (1-137) (yeast, UniProt P35189 1-137); assay: crystal structure; Taf14-YEATS (1-137) with 5 (wild type) or 10 (G82A) molar equivalents of peptide; sitting drop, 18 °C, PEG 600, citric acid pH 6.0; conditions: both partners purified
T6 construct: Taf14, yeast, YEATS domain, aa 1-137 (construct used for crystallization); GST tag probably cleaved for crystallization (surmise); also called wild-type Taf14-YEATS; source: E. coli BL21 (DE3) RIL, purified (glutathione Sepharose 4B, size exclusion)
T6 sequence (looked up): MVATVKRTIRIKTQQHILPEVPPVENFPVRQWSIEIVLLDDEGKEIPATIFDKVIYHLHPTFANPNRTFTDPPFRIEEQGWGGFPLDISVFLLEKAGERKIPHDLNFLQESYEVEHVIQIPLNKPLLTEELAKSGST

Taf14 YEATS domain [7] = biological target: T3, Taf14 YEATS domain; assay: other fluorescence titration; tryptophan fluorescence; 1-2 µM wild-type or mutated Taf14 YEATS domain in PBS pH 7.4, 25 °C, increasing concentrations of H3 peptide (aa 5-13); excitation 295 or 280 nm
Taf14-YEATS G82A (1-137) = biological target: T7, Taf14-YEATS G82A (1-137) (yeast, UniProt P35189 1-137, G82A); assay: crystal structure; Taf14-YEATS (1-137) with 5 (wild type) or 10 (G82A) molar equivalents of peptide; sitting drop, 18 °C, PEG 600, citric acid pH 6.0; conditions: both partners purified
T7 construct: Taf14, yeast, YEATS domain, aa 1-137 with G82A (construct used for crystallization); Also crystallized in the apo state; also called G82A mutant; source: E. coli BL21 (DE3) RIL, purified
T7 sequence (looked up): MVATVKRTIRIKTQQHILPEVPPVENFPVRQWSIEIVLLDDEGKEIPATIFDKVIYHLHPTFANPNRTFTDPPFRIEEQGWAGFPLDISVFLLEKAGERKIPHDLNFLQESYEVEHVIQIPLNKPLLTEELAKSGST

AF9-YEATS Y78W [8] = biological target: T8, AF9-YEATS Y78W (human, UniProt P42568 1-138, Y78W)
T8 sequence: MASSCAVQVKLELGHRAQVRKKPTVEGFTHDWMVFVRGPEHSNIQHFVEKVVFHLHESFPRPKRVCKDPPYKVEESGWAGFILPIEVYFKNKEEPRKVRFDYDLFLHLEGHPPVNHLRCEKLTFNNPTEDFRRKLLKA

AF9-YEATS Y78W [9] = biological target: T9, AF9-YEATS Y78W (human, UniProt P42568 1-138, Y78W); assay: other fluorescence titration; tryptophan fluorescence; 1-2 µM wild-type or mutated AF9 YEATS domain in 20 mM Tris pH 7.5, 500 mM NaCl, 2 mM BME, 25 °C, increasing concentrations of H3 peptide (aa 5-13); conditions: both partners purified
T9 construct: AF9, human, YEATS domain, aa 1-138 with Y78W; also called Y78W mutant; source: E. coli BL21 (DE3) RIL, purified
T9 sequence (looked up): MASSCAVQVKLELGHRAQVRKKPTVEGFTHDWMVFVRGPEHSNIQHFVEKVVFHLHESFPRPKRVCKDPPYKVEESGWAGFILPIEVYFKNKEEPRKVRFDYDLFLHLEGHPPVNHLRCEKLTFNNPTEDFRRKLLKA

AF9-YEATS Y78W/A79G = biological target: T10, AF9-YEATS Y78W/A79G (human, UniProt P42568 1-138, Y78W | A79G)
T10 sequence: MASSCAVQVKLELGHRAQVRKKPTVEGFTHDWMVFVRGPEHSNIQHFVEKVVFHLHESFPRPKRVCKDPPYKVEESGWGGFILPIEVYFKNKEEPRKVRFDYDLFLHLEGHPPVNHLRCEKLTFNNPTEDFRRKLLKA

Taf14 YEATS domain [10] = biological target: T3, Taf14 YEATS domain; assay: NMR
[11] = biological target: T5, AF9-YEATS domain (aa 1-138); assay: crystal structure; AF9-YEATS (wild type or Y78W) at 6 mg/ml with two molar equivalents of peptide; sitting drop, 4 °C; conditions: both partners purified
AF9-YEATS Y78W [12] = biological target: T9, AF9-YEATS Y78W; assay: as above; conditions: both partners purified
H3K9acyl = conditions: cited from earlier work
Source text: To assess how AF9-YEATS interacts with both H3K9acyl and DNA, we reconstituted H3K9acyl-containing nucleosome core particles (H3K9cr-NCPs and H3K9ac-NCP) and examined binding of AF9-YEATS to these NCPs and to unmodified NCP in EMSA.

CC(=O)NCCCC[C@H](NC(=O)[C@H](CCCNC(=N)N)NC(=O)[C@H](C)NC(=O)[C@@H](NC(=O)[C@@H](N)CCC(N)=O)[C@@H](C)O)C(=O)N[C@@H](CO)C(=O)N[C@H](C(=O)NCC(=O)NCC(=O)O)[C@@H](C)O [H3K9ac]
Kd (Taf14-YEATS G82A [1]): > 10000 µM

C/C=C/C(=O)NCCCC[C@H](NC(=O)[C@H](CCCNC(=N)N)NC(=O)[C@H](C)NC(=O)[C@@H](NC(=O)[C@@H](N)CCC(N)=O)[C@@H](C)O)C(=O)N[C@@H](CO)C(=O)N[C@H](C(=O)NCC(=O)NCC(=O)O)[C@@H](C)O [H3K9cr]
Kd (AF9-YEATS Y78W [2]): 2 µM
Kd (Taf14-YEATS G82A [3]): 124 µM
Selectivity of G82A mutant for H3K9cr (over H3K9ac) (Taf14-YEATS G82A [1]; from NMR titration data for H3K9ac, author's response in peer review file): greater than 80 -fold

B1: histone H3K9bu peptide (aa 5-13) (peptide, UniProt P68431 6-14, looked up)
peptide: QTARK(Butyryl)STGG
notes: histone H3, residues 5-13, K9 butyrylated; also called H3K9bu (5-13); source: bought: Synpeptide
Kd (Taf14 YEATS domain [4]): 28 µM
Kd (Taf14-YEATS W81Y): 40 µM
Kd [5]: 3.9 µM
binding result [6]: binds
binding result (Taf14-YEATS (1-137)): binds
fold reduction of binding against H3K9cr (Taf14 YEATS domain [7]): 3 fold

B2: histone H3K9cr peptide (aa 5-13) (peptide, UniProt P68431 6-14, looked up)
peptide: QTARK(Crotonyl(E))STGG
notes: histone H3, residues 5-13, K9 crotonylated; also called H3K9cr (5-13); source: bought: Synpeptide
Kd (Taf14 YEATS domain [4]): 9 µM
Kd [5]: 3.7 µM
binding result [6]: binds
binding result (Taf14-YEATS G82A (1-137)): binds

B3: histone H3K9ac peptide (aa 5-13) (peptide, UniProt P68431 6-14, looked up)
peptide: QTARK(Ac)STGG
notes: histone H3, residues 5-13, K9 acetylated; source: bought: Synpeptide
Kd (Taf14 YEATS domain [4]): 130 µM
Kd [5]: 4.3 µM
Kd (AF9-YEATS Y78W [8]): 2.3 µM
binding result [6]: binds
Kd (AF9-YEATS Y78W [9]): 2 µM

QTARK(Crotonyl(E))STGG [histone H3K9cr peptide (limits not stated)]
Kd (Taf14-YEATS W81Y): 9.2 µM
Kd (AF9-YEATS Y78W/A79G): 2.7 µM

QTARK(Suc)STGG [histone H3K9su peptide]
Kd (Taf14 YEATS domain [10]): > 700 µM

QTARK(Ac)STGG [histone H3K9ac peptide (limits not stated)]
Kd (AF9-YEATS Y78W/A79G): 2.6 µM

B4: histone H3K9bu (1-19) peptide (peptide, UniProt P68431 2-20, looked up)
peptide: ARTKQTARKSTGGKAPRKQ
modifications: butyryllysine at K9
notes: histone H3, residues 1-19, K9 butyrylated
binding result [11]: binds

B5: histone H3K9cr (5-14) peptide (peptide, UniProt P68431 6-15, looked up)
peptide: QTARK(Crotonyl(E))STGGK
notes: histone H3, residues 5-14, K9 crotonylated
binding result (AF9-YEATS Y78W [12]): binds

B6: histone H3K9pr (5-13) peptide (peptide, UniProt P68431 6-14, looked up)
peptide: QTARK(Propionyl)STGG
notes: histone H3, residues 5-13, K9 propionylated; also called propionylated H3K9pr peptide
binding result (Taf14-YEATS (1-137)): binds

B7: AF9-YEATS F59A/Y78A: AF9-YEATS mutant defective in H3K9acyl binding (protein)
chain: MASSCAVQVKLELGHRAQVRKKPTVEGFTHDWMVFVRGPEHSNIQHFVEKVVFHLHESAPRPKRVCKDPPYKVEESGAAGFILPIEVYFKNKEEPRKVRFDYDLFLHLEGHPPVNHLRCEKLTFNNPTEDFRRKLLKA
modifications: left off: His tag, end not stated, cleaved
H3K9acyl binding of mutant (H3K9acyl): defective in H3K9acyl binding
